From patent US20160272693A1 (ZEALAND PHARMA A S, published 2016) come the findings set out here.

The target in this assay is T1, human amylin receptor 3 (hAMYR3), hCTR2 co-expressed with human receptor activity modifying protein 3 (hRAMP3) (human, UniProt P30988 25-474; O60896 24-148).
T1 sequence (looked up) 1: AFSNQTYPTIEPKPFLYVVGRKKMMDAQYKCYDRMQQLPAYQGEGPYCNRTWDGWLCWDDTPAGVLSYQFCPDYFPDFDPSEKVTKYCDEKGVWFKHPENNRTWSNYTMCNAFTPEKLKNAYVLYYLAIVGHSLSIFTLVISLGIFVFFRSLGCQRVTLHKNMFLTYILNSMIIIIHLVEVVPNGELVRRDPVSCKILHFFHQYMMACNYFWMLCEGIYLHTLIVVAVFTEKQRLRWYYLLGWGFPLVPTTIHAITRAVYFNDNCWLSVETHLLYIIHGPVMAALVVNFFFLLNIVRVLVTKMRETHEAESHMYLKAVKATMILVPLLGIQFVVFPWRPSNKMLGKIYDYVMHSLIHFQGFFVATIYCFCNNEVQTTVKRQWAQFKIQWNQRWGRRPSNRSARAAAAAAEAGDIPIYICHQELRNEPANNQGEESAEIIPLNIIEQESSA
T1 sequence (looked up) 2: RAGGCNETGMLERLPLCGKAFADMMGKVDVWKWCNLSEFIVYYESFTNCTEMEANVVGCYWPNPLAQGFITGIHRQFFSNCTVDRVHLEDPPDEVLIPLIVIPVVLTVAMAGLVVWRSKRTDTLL
Briefly: cell-based or functional assay.

*1 amine or outer side, *2 acyl side, *3 side chain or, on linkers, in order; H or OH if unused. Bridges are numbered along the chain shown (N, C = ends). [ ]: non-standard residue; d: D form. The star is where a group is joined. C20 diacid = O=C(O)CCCCCCCCCCCCCCCCCCC(=O)*; γGlu = O=C(O)[C@H](CCC(=O)[*:2])N[*:1]; Hyp = O=C(O)[C@@H]1C[C@@H](O)CN1; NMeI = CC[C@H](C)[C@H](NC)C(=O)O; Sar = CNCC(=O)O

B1: [19CD]-isoGlu-R-C( )-GTAT-C( )-ATERLAHFLVRSSF-Gly(Me)-A-Ile(Me)-LSSTEVGSST-Hyp-NH2 (Compd. 31) (peptide)
peptide: {C20 diacid-γGlu}-RCGTATCATERLAHFLVRSSF[Sar]A[NMeI]LSSTEVGSST[Hyp]-NH2
modifications: disulfide 2-7
SMILES: CC[C@H](C)[C@@H](C(=O)N[C@@H](CC(C)C)C(=O)N[C@@H](CO)C(=O)N[C@@H](CO)C(=O)N[C@H](C(=O)N[C@@H](CCC(=O)O)C(=O)N[C@H](C(=O)NCC(=O)N[C@@H](CO)C(=O)N[C@@H](CO)C(=O)N[C@H](C(=O)N1C[C@H](O)C[C@H]1C(N)=O)[C@@H](C)O)C(C)C)[C@@H](C)O)N(C)C(=O)[C@H](C)NC(=O)CN(C)C(=O)[C@H](Cc1ccccc1)NC(=O)[C@H](CO)NC(=O)[C@H](CO)NC(=O)[C@H](CCCNC(=N)N)NC(=O)[C@@H](NC(=O)[C@H](CC(C)C)NC(=O)[C@H](Cc1ccccc1)NC(=O)[C@H](Cc1c[nH]cn1)NC(=O)[C@H](C)NC(=O)[C@H](CC(C)C)NC(=O)[C@H](CCCNC(=N)N)NC(=O)[C@H](CCC(=O)O)NC(=O)[C@@H](NC(=O)[C@H](C)NC(=O)[C@@H]1CSSC[C@H](NC(=O)[C@H](CCCNC(=N)N)NC(=O)CC[C@H](NC(=O)CCCCCCCCCCCCCCCCCCC(=O)O)C(=O)O)C(=O)NCC(=O)N[C@@H]([C@@H](C)O)C(=O)N[C@@H](C)C(=O)N[C@@H]([C@@H](C)O)C(=O)N1)[C@@H](C)O)C(C)C
Consider B1, for which the “hAMYR3 EC50 (nM); cAMP induction” value worked out at 0.29 nM.

B2: [19CD]-isoGlu-R-C( )-GTAT-C( )-ATERLAHFLNRSSF-Gly(Me)-A-Ile(Me)-LSSTEVGSFT-Hyp-NH2 (Compd. 33) (peptide)
peptide: {C20 diacid}-[γGlu]RCGTATCATERLAHFLNRSSF[Sar]A[NMeI]LSSTEVGSFT[Hyp]-NH2
modifications: disulfide 3-8
SMILES: CC[C@H](C)[C@@H](C(=O)N[C@@H](CC(C)C)C(=O)N[C@@H](CO)C(=O)N[C@@H](CO)C(=O)N[C@H](C(=O)N[C@@H](CCC(=O)O)C(=O)N[C@H](C(=O)NCC(=O)N[C@@H](CO)C(=O)N[C@@H](Cc1ccccc1)C(=O)N[C@H](C(=O)N1C[C@H](O)C[C@H]1C(N)=O)[C@@H](C)O)C(C)C)[C@@H](C)O)N(C)C(=O)[C@H](C)NC(=O)CN(C)C(=O)[C@H](Cc1ccccc1)NC(=O)[C@H](CO)NC(=O)[C@H](CO)NC(=O)[C@H](CCCNC(=N)N)NC(=O)[C@H](CC(N)=O)NC(=O)[C@H](CC(C)C)NC(=O)[C@H](Cc1ccccc1)NC(=O)[C@H](Cc1c[nH]cn1)NC(=O)[C@H](C)NC(=O)[C@H](CC(C)C)NC(=O)[C@H](CCCNC(=N)N)NC(=O)[C@H](CCC(=O)O)NC(=O)[C@@H](NC(=O)[C@H](C)NC(=O)[C@@H]1CSSC[C@H](NC(=O)[C@H](CCCNC(=N)N)NC(=O)CC[C@H](NC(=O)CCCCCCCCCCCCCCCCCCC(=O)O)C(=O)O)C(=O)NCC(=O)N[C@@H]([C@@H](C)O)C(=O)N[C@@H](C)C(=O)N[C@@H]([C@@H](C)O)C(=O)N1)[C@@H](C)O
In the case of B2, the “hAMYR3 EC50 (nM); cAMP induction” value came out at 0.15 nM.

B3: [19CD]-isoGlu-R-C( )-GTAT-C( )-ATERLAHFLNRSSF-Gly(Me)-A-Ile(Me)-LSSTEVGSST-Hyp-NH2 (Compd. 29) (peptide)
peptide: {C20 diacid}-[γGlu]RCGTATCATERLAHFLNRSSF[Sar]A[NMeI]LSSTEVGSST[Hyp]-NH2
modifications: disulfide 3-8
SMILES: CC[C@H](C)[C@@H](C(=O)N[C@@H](CC(C)C)C(=O)N[C@@H](CO)C(=O)N[C@@H](CO)C(=O)N[C@H](C(=O)N[C@@H](CCC(=O)O)C(=O)N[C@H](C(=O)NCC(=O)N[C@@H](CO)C(=O)N[C@@H](CO)C(=O)N[C@H](C(=O)N1C[C@H](O)C[C@H]1C(N)=O)[C@@H](C)O)C(C)C)[C@@H](C)O)N(C)C(=O)[C@H](C)NC(=O)CN(C)C(=O)[C@H](Cc1ccccc1)NC(=O)[C@H](CO)NC(=O)[C@H](CO)NC(=O)[C@H](CCCNC(=N)N)NC(=O)[C@H](CC(N)=O)NC(=O)[C@H](CC(C)C)NC(=O)[C@H](Cc1ccccc1)NC(=O)[C@H](Cc1c[nH]cn1)NC(=O)[C@H](C)NC(=O)[C@H](CC(C)C)NC(=O)[C@H](CCCNC(=N)N)NC(=O)[C@H](CCC(=O)O)NC(=O)[C@@H](NC(=O)[C@H](C)NC(=O)[C@@H]1CSSC[C@H](NC(=O)[C@H](CCCNC(=N)N)NC(=O)CC[C@H](NC(=O)CCCCCCCCCCCCCCCCCCC(=O)O)C(=O)O)C(=O)NCC(=O)N[C@@H]([C@@H](C)O)C(=O)N[C@@H](C)C(=O)N[C@@H]([C@@H](C)O)C(=O)N1)[C@@H](C)O
For B3, the “hAMYR3 EC50 (nM); cAMP induction” value is 0.12 nM.

B4: [19CD]-isoGlu-R-C( )-GTAT-C( )-ATERLAHFLQRSSF-Gly(Me)-A-Ile(Me)-LSSTEVGSFT-Hyp-NH2 (Compd. 32) (peptide)
peptide: {C20 diacid}-[γGlu]RCGTATCATERLAHFLQRSSF[Sar]A[NMeI]LSSTEVGSFT[Hyp]-NH2
modifications: disulfide 3-8
SMILES: CC[C@H](C)[C@@H](C(=O)N[C@@H](CC(C)C)C(=O)N[C@@H](CO)C(=O)N[C@@H](CO)C(=O)N[C@H](C(=O)N[C@@H](CCC(=O)O)C(=O)N[C@H](C(=O)NCC(=O)N[C@@H](CO)C(=O)N[C@@H](Cc1ccccc1)C(=O)N[C@H](C(=O)N1C[C@H](O)C[C@H]1C(N)=O)[C@@H](C)O)C(C)C)[C@@H](C)O)N(C)C(=O)[C@H](C)NC(=O)CN(C)C(=O)[C@H](Cc1ccccc1)NC(=O)[C@H](CO)NC(=O)[C@H](CO)NC(=O)[C@H](CCCNC(=N)N)NC(=O)[C@H](CCC(N)=O)NC(=O)[C@H](CC(C)C)NC(=O)[C@H](Cc1ccccc1)NC(=O)[C@H](Cc1c[nH]cn1)NC(=O)[C@H](C)NC(=O)[C@H](CC(C)C)NC(=O)[C@H](CCCNC(=N)N)NC(=O)[C@H](CCC(=O)O)NC(=O)[C@@H](NC(=O)[C@H](C)NC(=O)[C@@H]1CSSC[C@H](NC(=O)[C@H](CCCNC(=N)N)NC(=O)CC[C@H](NC(=O)CCCCCCCCCCCCCCCCCCC(=O)O)C(=O)O)C(=O)NCC(=O)N[C@@H]([C@@H](C)O)C(=O)N[C@@H](C)C(=O)N[C@@H]([C@@H](C)O)C(=O)N1)[C@@H](C)O
With B4, the “hAMYR3 EC50 (nM); cAMP induction” value amounted to 0.23 nM.

B5: [19CD]-isoGlu-R-C( )-GTAT-C( )-ATERLAHFLQRSSF-Gly(Me)-A-Ile(Me)-LSSTEVGSSTP-NH2 (Compd. 34) (peptide)
peptide: {C20 diacid}-[γGlu]RCGTATCATERLAHFLQRSSF[Sar]A[NMeI]LSSTEVGSSTP-NH2
modifications: disulfide 3-8
SMILES: CC[C@H](C)[C@@H](C(=O)N[C@@H](CC(C)C)C(=O)N[C@@H](CO)C(=O)N[C@@H](CO)C(=O)N[C@H](C(=O)N[C@@H](CCC(=O)O)C(=O)N[C@H](C(=O)NCC(=O)N[C@@H](CO)C(=O)N[C@@H](CO)C(=O)N[C@H](C(=O)N1CCC[C@H]1C(N)=O)[C@@H](C)O)C(C)C)[C@@H](C)O)N(C)C(=O)[C@H](C)NC(=O)CN(C)C(=O)[C@H](Cc1ccccc1)NC(=O)[C@H](CO)NC(=O)[C@H](CO)NC(=O)[C@H](CCCNC(=N)N)NC(=O)[C@H](CCC(N)=O)NC(=O)[C@H](CC(C)C)NC(=O)[C@H](Cc1ccccc1)NC(=O)[C@H](Cc1c[nH]cn1)NC(=O)[C@H](C)NC(=O)[C@H](CC(C)C)NC(=O)[C@H](CCCNC(=N)N)NC(=O)[C@H](CCC(=O)O)NC(=O)[C@@H](NC(=O)[C@H](C)NC(=O)[C@@H]1CSSC[C@H](NC(=O)[C@H](CCCNC(=N)N)NC(=O)CC[C@H](NC(=O)CCCCCCCCCCCCCCCCCCC(=O)O)C(=O)O)C(=O)NCC(=O)N[C@@H]([C@@H](C)O)C(=O)N[C@@H](C)C(=O)N[C@@H]([C@@H](C)O)C(=O)N1)[C@@H](C)O
With B5, the “hAMYR3 EC50 (nM); cAMP induction” value amounted to 0.12 nM.

B6: [19CD]-isoGlu-R-C( )-GTAT-C( )-ATERLAHFLHRSSF-Gly(Me)-A-Ile(Me)-LSSTEVGSST-Hyp-NH2 (Compd. 30) (peptide)
peptide: {C20 diacid}-[γGlu]RCGTATCATERLAHFLHRSSF[Sar]A[NMeI]LSSTEVGSST[Hyp]-NH2
modifications: disulfide 3-8
SMILES: CC[C@H](C)[C@@H](C(=O)N[C@@H](CC(C)C)C(=O)N[C@@H](CO)C(=O)N[C@@H](CO)C(=O)N[C@H](C(=O)N[C@@H](CCC(=O)O)C(=O)N[C@H](C(=O)NCC(=O)N[C@@H](CO)C(=O)N[C@@H](CO)C(=O)N[C@H](C(=O)N1C[C@H](O)C[C@H]1C(N)=O)[C@@H](C)O)C(C)C)[C@@H](C)O)N(C)C(=O)[C@H](C)NC(=O)CN(C)C(=O)[C@H](Cc1ccccc1)NC(=O)[C@H](CO)NC(=O)[C@H](CO)NC(=O)[C@H](CCCNC(=N)N)NC(=O)[C@H](Cc1c[nH]cn1)NC(=O)[C@H](CC(C)C)NC(=O)[C@H](Cc1ccccc1)NC(=O)[C@H](Cc1c[nH]cn1)NC(=O)[C@H](C)NC(=O)[C@H](CC(C)C)NC(=O)[C@H](CCCNC(=N)N)NC(=O)[C@H](CCC(=O)O)NC(=O)[C@@H](NC(=O)[C@H](C)NC(=O)[C@@H]1CSSC[C@H](NC(=O)[C@H](CCCNC(=N)N)NC(=O)CC[C@H](NC(=O)CCCCCCCCCCCCCCCCCCC(=O)O)C(=O)O)C(=O)NCC(=O)N[C@@H]([C@@H](C)O)C(=O)N[C@@H](C)C(=O)N[C@@H]([C@@H](C)O)C(=O)N1)[C@@H](C)O
Regarding B6, the “hAMYR3 EC50 (nM); cAMP induction” value came out at 0.12 nM. The value for {C20 diacid}-[γGlu]RCNTATCATQRLANFLHRSSF[Sar]A[NMeI]LSSTEVGSETP-NH2 (disulfide 3-8) [[19CD]-isoGlu-R-C( )-NTAT-C( )-ATQRLANFLHRSSF-Gly(Me)-A-Ile(Me)-LSSTEVGSETP-NH2 (Compd. 3)] was 0.2 nM.
